Data published in patent publication US20090258005A1 (TRUBION PHARMACEUTICALS, published 2009).
Substitutions are numbered along the chain they refer to.

B1: S1R3C1_BMV_1H11 (scFv, V domains shown)
VH: GVQLVESGGGLVKPGGSLRLSCAASGFTFSSYNMNWVRQAPGKGLEWVSAISGSGGSTYYADSVTGRFTISRDNSKNTLYLQMNSLRAEDTAVYYCAKDTSGWYGDGMDVWGRGTLVTVSS
VL: DIQMTQSPSTLSASIGDRVTITCRASEGIYHWLAWYQQKPGKAPKLLIYKASSLASGAPSRFSGSGSGTDFTLTISSLQPDDFATYYCQQYSNYPLTFGGGTKLEIK
notes: scFv, soluble from bacterial periplasm in the screen; also called Her2_S1R3C1_BMV_1H11
B2: S1R3B1_BMV_1A10 (scFv, V domains shown)
VH: QMQLVQSGGGVVQPGRSLRLSCAASGFTFSSYGMHWVRQAPGKGLEWVAVISYDGSIKYYADSVKGRFTISRDNSKNTLYLQMNSLRAEDTGVYYCSKDRYSSGWYSSDAFDIWGRGTMVTVSS
VL: SSELTQDPAVSVALGQTVRITCQGDSLRSYYASWYQQKPGQAPVLVIYGKNNRPSGIPDRFSGSSSGNTASLTITGAQAEDEADYYCHSRDSSGNHVLFGGGTKLTVL
notes: scFv, soluble from bacterial periplasm in the screen; also called Her2_S1R3B1_BMV_1A10
B3: S1R3B1_BMV_1C12 (scFv, V domains shown)
VH: EVQLVQSGGGVVQPGRSLRLSCAASGFTFSSYGMHWVRQAPGKGLEWVAVISYDGSIKYYADSVKGRFTISRDNSKNTLYLQMNSLRAEDTAVYYCARTGEYSGYDTSGYSNWGQGTLVTVSS
VL: QSVLTQPPSASGTPGQRVTISCSGSSSNIGSNTVNWYQRLPGAAPQLLIYNNDQRPSGIPDRFSGSKSGTSGSLVISGLQSEDEADYYCASWDDSLNGRVFGGGTKLTVL
notes: scFv, soluble from bacterial periplasm in the screen; also called Her2_S1R3B1_BMV_1C12
B4: S1R2C_CS_1H12 (scFv, V domains shown)
VH: EVQLVETGGGLVQPGGSLRLSCAASGFTFSSYGMNWVRQAPGKGLEWVSYISSSGNTIFYADSVKGRFTISRDSAKNSVSLQMNSLRDEDTAVYYCASYYSYYYGMDAWGQGTMVTVSS
VL: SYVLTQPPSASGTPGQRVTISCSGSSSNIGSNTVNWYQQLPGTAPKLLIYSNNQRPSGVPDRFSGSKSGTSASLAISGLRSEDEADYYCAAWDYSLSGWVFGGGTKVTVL
notes: scFv, on phage in the screen
B5: S1R3B2_BMV_1E1 (scFv, V domains shown)
VH: EVQLVETGGGVVQPGGSLSLSCAASGFTFSSYGMQWVRQAPGKGLEWVAFIRYDGSSEYYADSVKGRFTISRDNSKNTLYLQMNSLRAEDTAVYYCGRTLESSLWGKGTLVTVSS
VL: QSVLTQPPSVSAAPGQKVTISCSGSTSNIGNNYVSWYQQHPGKAPKLMIYDVSKRPSGVPDRFSGSKSGNSASLDISGLQSEDEADYYCAAWDDSLSEFLFGTRTKLTVL
notes: scFv, on phage in the screen; also called Her2_S1R3B2_BMV_1E1
B6: S1R3B2_DP47_1E8 (scFv, V domains shown)
VH: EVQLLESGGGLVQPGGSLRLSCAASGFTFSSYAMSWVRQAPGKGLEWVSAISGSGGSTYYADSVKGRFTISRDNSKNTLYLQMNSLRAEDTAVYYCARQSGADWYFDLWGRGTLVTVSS
VL: QAVLTQPSAVSGAPGQRVTISCTGTSSNIGTNYLVHWYQQRPGTAPQLLVSGNNTRPSGVTDRFSVSKSATSASLAITGLQAEDEADYYCQTYDINLRVWVFGGGTKVTVL
notes: scFv, on phage in the screen; also called Her2_S1R3B2_DP47_1E8
B7: S1R3B2_DP47_1E10 (scFv, V domains shown)
VH: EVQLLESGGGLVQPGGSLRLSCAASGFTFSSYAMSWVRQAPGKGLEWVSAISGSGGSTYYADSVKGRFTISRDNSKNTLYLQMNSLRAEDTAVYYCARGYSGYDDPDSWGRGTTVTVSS
VL: HVILTQPPSTSGTPGQTVTISCSGSSSNIGSHYVYWYQQLPGTAPKLLIYRNNQRPSGVPDRFSGSKSGTSASLAISGLRSEDETDYYCAAWDDSLSGRVFGTGTKLTVL
notes: scFv, on phage in the screen; also called Her2_S1R3B2_DP47_1E10
B8: S1R3C1_CS_1A6 (scFv, V domains shown)
VH: EVQLVQSGAEVKKPGESLKISCKGFGYNFRSAWIGWVRQMPGKGLEWMGVIYPGDSDVRYSPSFQGQVTISADKSISTAYLQWSSLKASDTAMYYCTRPVGQWVDSDYWGKGTLVTVSS
VL: QSVLTQPPSASGTPGQRVTISCSGSSSNIGTNTVNWYQQLPGTAPKLLIYTSNQRPSGVPARFSASNSGTSASLAISGLRSEDEADYYCAAWDDKLSGAVFGGGTKLTVL
notes: scFv, on phage in the screen; also called Her2_S1R3C1_CS_1A6
B9: S1R3B2_DP47_1C9 (scFv, V domains shown)
VH: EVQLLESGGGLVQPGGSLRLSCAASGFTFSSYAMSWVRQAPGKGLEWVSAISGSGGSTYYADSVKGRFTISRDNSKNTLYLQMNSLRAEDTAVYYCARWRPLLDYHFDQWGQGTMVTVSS
VL: QSVLTQPPSASGTPGQTVTISCSGSSSNIGSSVVNWYQQFPGTAPKVLVYSNTQRPSGVPDRFSGSRSGTSASLAISGLQSEDEADYYCLAWDASLNGWVFGGGTKLTVL
notes: scFv, on phage in the screen; also called Her2_S1R3B2_DP47_1C9
B10: S1R2A_CS_1F7 (scFv, V domains shown)
VH: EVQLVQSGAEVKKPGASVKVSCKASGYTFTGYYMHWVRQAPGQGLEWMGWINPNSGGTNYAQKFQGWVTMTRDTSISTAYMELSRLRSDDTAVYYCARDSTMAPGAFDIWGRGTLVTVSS
VL: QSVLTQPPSVSVAPGQTARMTCGGNNIESKTVHWYQQKPGQAPVLVVYNDNVRPSGIPARFSGSNSGNTATLTINRVEAGDEADYYCQVWDSSRDQGVFGGGTKLTVL
notes: scFv, on phage in the screen
B11: S1R3B1_DP47_1E1 (scFv, V domains shown)
VH: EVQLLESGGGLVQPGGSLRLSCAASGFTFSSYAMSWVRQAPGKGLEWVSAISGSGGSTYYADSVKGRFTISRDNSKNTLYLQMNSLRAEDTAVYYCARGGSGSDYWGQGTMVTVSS
VL: NFMLTQPHSVSGSPGKTVTISCTRSSGYIDSKYVQWYQQRPGSAPTTVIYEDNRRPSGVPDRFSGSIDSSSNSASLTISGLETEDEADYYCQSYDDTNVVFGGGTKVTVL
notes: scFv, soluble from bacterial periplasm in the screen; also called Her2_S1R3B1_DP47_1E1
B12: S1R3C1_DP47_1H1 (scFv, V domains shown)
VH: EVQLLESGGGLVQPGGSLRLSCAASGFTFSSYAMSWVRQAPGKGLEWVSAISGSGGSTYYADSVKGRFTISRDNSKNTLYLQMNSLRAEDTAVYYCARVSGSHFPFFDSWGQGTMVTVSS
VL: QSVLTQPPSVSVAPGQTARITCGGDKIGHKSVHWYQQKPGQAPVLLVYDDRKRPSGIPERFSGSNSGNTATLTISRVEAGDEAAYHCQVWDRSSDPYVFGTGTKVTVL
notes: scFv, soluble from bacterial periplasm in the screen; also called Her2_S1R3C1_DP47_1H1
B13: S1R3B2_BMV_1H5 (scFv, V domains shown)
VH: EVQLVQSGGGLVRPGGSLRLSCAASGFSFSDYYMTWIRQIPGKGLEWVAVIWNDGSDRYYADSVKGRFTISRDNSKNTLFLQMSSLRDEDTALYYCVRGGPTASSGFDYWGRGTLVTVSS
VL: SSELTQPASVSGSPGQSITISCTGTSSDVGGYNYVSWYLQHPGKAPKLMIYEGSKRPSGVSNRFSGSKSGNTASLTISGLQAEDEADYYCSSYTTRSTRVFGGGTKLTVL
notes: scFv, on phage in the screen; also called Her2_S1R3B2_BMV_1H5
B14: S1R3A1_BMV_1G4 (scFv, V domains shown)
VH: QVQLVESGAEVKKPGASVKVSCKASGYTFTSYDINWVRQAPGQRLEWMGWINAGNGNTKYSQKFQGRVTITRDTSASTAYMELRSLRSDDTAVYYCARGRSYGHPYYFDYWGQGTLVTVSS
VL: B13 VL with S1Q, E3V, L39Q
notes: scFv, soluble from bacterial periplasm in the screen; also called Her2_S1R3A1_BMV_1G4
B15: S1R2A_CS_1D3 (scFv, V domains shown)
VH: EVQLVQSGAEVKKPGASVKVSCKASGYSFTAFYIHWVRQAPGQGLEYLGWIDPNTGATKYAQRFQGRVIMTWDTSITTATMELSRLTSDDSAVYYCVRDLREWGYELSVEYWGRGTLVTVSS
VL: not shown
notes: scFv, on phage in the screen
B16: S1R3C1_CS_1B10 (scFv, V domains shown)
VH: QVQLQQSGAEVKKPGSSVKVSCKASGGTISNYAISWVRLAPGQGLEWMGSIVPLHGTTNFAQKFQGRVTITADESTSTSYMEVNVLTYEDTAMYYCASLNWGYWGRGTLVTVSS
VL: NFMLTQPHSVSESPGKTVTISCTGSSGSIASNYVQWYQQRPDSAPTTVIYEDNRRSSGVPDRFSGSIDSSSNSASLSISGLKTEDEADYYCQSYDSSGHVVFGGGTKLTVL
notes: scFv, on phage in the screen; also called Her2_S1R3C1_CS_1B10

Target: T1, L1-CR1 (Her054P)
T1 construct: also called 1.0
T1 chain: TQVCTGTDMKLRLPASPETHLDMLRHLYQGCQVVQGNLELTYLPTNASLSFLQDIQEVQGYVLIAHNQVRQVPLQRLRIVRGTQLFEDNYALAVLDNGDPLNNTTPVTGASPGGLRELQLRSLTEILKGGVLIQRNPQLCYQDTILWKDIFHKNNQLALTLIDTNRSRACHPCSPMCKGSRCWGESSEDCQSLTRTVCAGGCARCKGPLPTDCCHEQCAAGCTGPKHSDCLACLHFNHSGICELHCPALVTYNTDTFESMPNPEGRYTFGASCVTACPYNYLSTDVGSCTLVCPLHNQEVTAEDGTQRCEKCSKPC
Assay: ELISA, soluble scFv on L1-CR1
Protocol: (§1) Various Her2-Fc proteins (e.g., Her008P, Her017P, Her018P, etc.) or a negative control murine IgG2a protein were coated overnight at 4° C. on 96-well Nunc Maxisorp at a concentration of 1 ug/ml in PBS. Alternatively, pre-blocked streptavidin-coated plates (Greiner) were coated with biotinylated Her2-Fc proteins for 1 hour at room temperature at a concentration of 1 ug/ml in block buffer (3% skim milk/1% BSA/PBS). Plates were washed three times using PBS and blocked for 1 hour at room temperature in 3% skim milk/1% BSA/PBS. Phage or peripreps were prepared as described above and were blocked for 1 hour at room temperature in an equal volume of 6% skim milk/1% BSA/PBS. Blocked plates were washed five times with PBS and 50 μl/well of blocked phage or periprep were transferred to the appropriate plates and incubated for 1 hour at room temperature. […] Plates were incubated for a further hour at room temperature and washed seven times with PBS. Signal was developed using TMB, the reaction stopped with H₂SO₄ and the absorbance read at 450 nm on an Envision plate reader (Perkin Elmer).

| Binder | binding result |
| --- | --- |
| B1 | no binding |
| B2 | no binding |
| B3 | no binding |
| B4 | no binding |
| B5 | no binding |
| B6 | no binding |
| B7 | no binding |
| B8 | no binding |
| B9 | no binding |
| B10 | no binding |
| B11 | no binding |
| B12 | no binding |
| B13 | no binding |
| B14 | no binding |
| B15 | no binding |
| B16 | no binding |

target: T2, Full length HER2 (human, UniProt P04626 23-1255); assay: cell ELISA, phage scFv, SKBR3 cells
T2 construct: Endogenous HER2 on SKBR3, BT474, 22rv1, MDA-MB-175, MDA-MB-453 and MDA-MB-361 cells; also called HER2 on the cell surface; ErbB2

| Binder | binding result |
| --- | --- |
| B4 | binds |
| B5 | binds |
| B6 | binds |
| B7 | binds |
| B8 | binds |
| B9 | binds |
| B10 | binds |
| B13 | binds |
| B15 | binds |

target: T3, EQR (Her017P); assay: ELISA, soluble scFv on EQR
T3 construct: also called HER2 EQR-Fc; HER2 EQR DIMER
Protocol: as §1

| Binder | binding result |
| --- | --- |
| B1 | no binding |
| B2 | no binding |
| B4 | no binding |
| B5 | no binding |
| B7 | no binding |
| B11 | no binding |
| B12 | no binding |
| B14 | no binding |
| B15 | no binding |

target: T4, Her018P, Her2 ECD with a deletion in the CR2 (Domain IV) region expressed with a mIgG2a Fc tail (human; murine, UniProt P04626 23-599); assay: ELISA, soluble scFv on Her018
T4 construct: Shares the name HER018 with the trastuzumab SMIP; also called 1.8 (Dimer); dimeric HER018; not shown: murine IgG2a Fc tail (C-terminal dimerising carrier) and any junction residues

| Binder | binding result |
| --- | --- |
| B1 | no binding |
| B2 | no binding |
| B4 | no binding |
| B5 | no binding |
| B6 | no binding |
| B7 | no binding |
| B9 | no binding |
| B11 | no binding |
| B12 | no binding |
| B14 | no binding |
| B15 | no binding |
